# Measurements as given in patent publication US20120064110A1.
# *: point of attachment. NH(propargyl) = C#CCN*
# Assay: Circular dichroism measurement of peptide secondary structure
# Type: physicochemical
# Conditions: aqueous environments; 208 nm and 222 nm signal; FIG. 1 and FIG. 2
row,Substance,α-helical structure content by circular dichroism
1,Acetyl-AADAADKEAAQKAIDAATNAVNAAIEAANAAGG-NHCH2CCH (Ac-AADAADKEAAQKAIDAATNAVNAAIEAANAAGG-{NH(propargyl)}; SMILES C#CCNC(=O)CNC(=O)CNC(=O)[C@H](C)NC(=O)[C@H](C)NC(=O)[C@H](CC(N)=O)NC(=O)[C@H](C)NC(=O)[C@H](C)NC(=O)[C@H](CCC(=O)O)NC(=O)[C@@H](NC(=O)[C@H](C)NC(=O)[C@H](C)NC(=O)[C@H](CC(N)=O)NC(=O)[C@@H](NC(=O)[C@H](C)NC(=O)[C@H](CC(N)=O)NC(=O)[C@@H](NC(=O)[C@H](C)NC(=O)[C@H](C)NC(=O)[C@H](CC(=O)O)NC(=O)[C@@H](NC(=O)[C@H](C)NC(=O)[C@H](CCCCN)NC(=O)[C@H](CCC(N)=O)NC(=O)[C@H](C)NC(=O)[C@H](C)NC(=O)[C@H](CCC(=O)O)NC(=O)[C@H](CCCCN)NC(=O)[C@H](CC(=O)O)NC(=O)[C@H](C)NC(=O)[C@H](C)NC(=O)[C@H](CC(=O)O)NC(=O)[C@H](C)NC(=O)[C@H](C)NC(C)=O)[C@@H](C)CC)[C@@H](C)O)C(C)C)[C@@H](C)CC) [HA54.1],More significant improvement of the α-helical content
2,Acetyl-AADAADKEAAQKALDAATNALNAAIEAANAAGG-NHCH2CCH (Ac-AADAADKEAAQKALDAATNALNAAIEAANAAGG-{NH(propargyl)}; SMILES C#CCNC(=O)CNC(=O)CNC(=O)[C@H](C)NC(=O)[C@H](C)NC(=O)[C@H](CC(N)=O)NC(=O)[C@H](C)NC(=O)[C@H](C)NC(=O)[C@H](CCC(=O)O)NC(=O)[C@@H](NC(=O)[C@H](C)NC(=O)[C@H](C)NC(=O)[C@H](CC(N)=O)NC(=O)[C@H](CC(C)C)NC(=O)[C@H](C)NC(=O)[C@H](CC(N)=O)NC(=O)[C@@H](NC(=O)[C@H](C)NC(=O)[C@H](C)NC(=O)[C@H](CC(=O)O)NC(=O)[C@H](CC(C)C)NC(=O)[C@H](C)NC(=O)[C@H](CCCCN)NC(=O)[C@H](CCC(N)=O)NC(=O)[C@H](C)NC(=O)[C@H](C)NC(=O)[C@H](CCC(=O)O)NC(=O)[C@H](CCCCN)NC(=O)[C@H](CC(=O)O)NC(=O)[C@H](C)NC(=O)[C@H](C)NC(=O)[C@H](CC(=O)O)NC(=O)[C@H](C)NC(=O)[C@H](C)NC(C)=O)[C@@H](C)O)[C@@H](C)CC) [SEQHAS],More significant improvement of the α-helical content
3,Acetyl-Ala-Ala-Asp-Lys-Ala-Ser-Thr-Gln-Ala-Ala-Ile-Asp-Gly-Ala-Thr-Asn-Ala-Val-Asn-Ser-Ala-Ile-Glu-Ala-Gly-Gly-NHCH2CCH (Ac-AADKASTQAAIDGATNAVNSAIEAGG-{NH(propargyl)}; SMILES C#CCNC(=O)CNC(=O)CNC(=O)[C@H](C)NC(=O)[C@H](CCC(=O)O)NC(=O)[C@@H](NC(=O)[C@H](C)NC(=O)[C@H](CO)NC(=O)[C@H](CC(N)=O)NC(=O)[C@@H](NC(=O)[C@H](C)NC(=O)[C@H](CC(N)=O)NC(=O)[C@@H](NC(=O)[C@H](C)NC(=O)CNC(=O)[C@H](CC(=O)O)NC(=O)[C@@H](NC(=O)[C@H](C)NC(=O)[C@H](C)NC(=O)[C@H](CCC(N)=O)NC(=O)[C@@H](NC(=O)[C@H](CO)NC(=O)[C@H](C)NC(=O)[C@H](CCCCN)NC(=O)[C@H](CC(=O)O)NC(=O)[C@H](C)NC(=O)[C@H](C)NC(C)=O)[C@@H](C)O)[C@@H](C)CC)[C@@H](C)O)C(C)C)[C@@H](C)CC) [A2],less optimal for forming α-helical structures in aqueous environments
4,Acetyl-AADAADKEAKQKAIDAATNAVNSAIEAANKAGG-NHCH2CCH (Ac-AADAADKEAKQKAIDAATNAVNSAIEAANKAGG-{NH(propargyl)}; SMILES C#CCNC(=O)CNC(=O)CNC(=O)[C@H](C)NC(=O)[C@H](CCCCN)NC(=O)[C@H](CC(N)=O)NC(=O)[C@H](C)NC(=O)[C@H](C)NC(=O)[C@H](CCC(=O)O)NC(=O)[C@@H](NC(=O)[C@H](C)NC(=O)[C@H](CO)NC(=O)[C@H](CC(N)=O)NC(=O)[C@@H](NC(=O)[C@H](C)NC(=O)[C@H](CC(N)=O)NC(=O)[C@@H](NC(=O)[C@H](C)NC(=O)[C@H](C)NC(=O)[C@H](CC(=O)O)NC(=O)[C@@H](NC(=O)[C@H](C)NC(=O)[C@H](CCCCN)NC(=O)[C@H](CCC(N)=O)NC(=O)[C@H](CCCCN)NC(=O)[C@H](C)NC(=O)[C@H](CCC(=O)O)NC(=O)[C@H](CCCCN)NC(=O)[C@H](CC(=O)O)NC(=O)[C@H](C)NC(=O)[C@H](C)NC(=O)[C@H](CC(=O)O)NC(=O)[C@H](C)NC(=O)[C@H](C)NC(C)=O)[C@@H](C)CC)[C@@H](C)O)C(C)C)[C@@H](C)CC) [HA54.4],More significant improvement of the α-helical content
